B1: human ΔNp63β with C-terminal FlAsH tag, labelled with FlAsH (natural protein, UniProt Q9H3D4-4 1-461, looked up)
chain: MLYLENNAQTQFSEPQYTNLGLLNSMDQQIQNGSSSTSPYNTDHAQNSVTAPSPYAQPSSTFDALSPSPAIPSNTDYPGPHSFDVSFQQSSTAKSATWTYSTELKKLYCQIAKTCPIQIKVMTPPPQGAVIRAMPVYKKAEHVTEVVKRCPNHELSREFNEGQIAPPSHLIRVEGNSHAQYVEDPITGRQSVLVPYEPPQVGTEFTTVLYNFMCNSSCVGGMNRRPILIIVTLETRDGQVLGRRCFEARICACPGRDRKADEDSIRKQQVSDSTKNGDGTKRPFRQNTHGIQMTSIKKRRSPDDELLYLPVRGRETYEMLLKIKESLELMQYLPQHTIETYRQQQQQQHQHLLQKQTSIQSPSSYGNSSPPLNKMNSMNKLPSVSQLINPQQRNALTPTTIPDGMGANIPMMGTHMPMAGDMNGLSPTQALPPPLSMPSTSHCTPPPPYPTDCSIVRIWQV
modifications: FlAsH (from FlAsH-EDT2, Lumio Green) on the C-terminal CCPGCC tetra-cysteine tag
notes: also called human p63; not shown: FlAsH tag CCPGCC, C-terminal, kept; 6xHis, N-terminal, cleaved; lipoyl domain, N-terminal, cleaved
B2: human ΔNp73β with C-terminal FlAsH tag, labelled with FlAsH (natural protein, UniProt O15350-9 1-450, looked up)
chain: MLYVGDPARHLATAQFNLLSSTMDQMSSRAASASPYTPEHAASVPTHSPYAQPSSTFDTMSPAPVIPSNTDYPGPHHFEVTFQQSSTAKSATWTYSPLLKKLYCQIAKTCPIQIKVSTPPPPGTAIRAMPVYKKAEHVTDVVKRCPNHELGRDFNEGQSAPASHLIRVEGNNLSQYVDDPVTGRQSVVVPYEPPQVGTEFTTILYNFMCNSSCVGGMNRRPILIIITLEMRDGQVLGRRSFEGRICACPGRDRKADEDHYREQQALNESSAKNGAASKRAFKQSPPAVPALGAGVKKRRHGDEDTYYLQVRGRENFEILMKLKESLELMELVPQPLVDSYRQQQQLLQRPSHLQPPSYGPVLSPMNKVHGGMNKLPSVNQLVGQPPPHSSAATPNLGPVGPGMLNNHGHAVPANGEMSSSHSAQSMVSGSHCTPPPPYHADPSLVRTWGP
modifications: FlAsH (from FlAsH-EDT2, Lumio Green) on the C-terminal CCPGCC tetra-cysteine tag
notes: also called human p73; not shown: FlAsH tag CCPGCC, C-terminal, kept; 6xHis, N-terminal, cleaved; lipoyl domain, N-terminal, cleaved
B3: Human p63 isoform ΔNp63β, with C-terminal FlAsH tag, FlAsH-labelled (natural protein, UniProt Q9H3D4-4 1-461, looked up)
chain: B1 chain
modifications: FlAsH (from FlAsH-EDT2, an arsenic derivative of fluorescein) on the C-terminal CCPGCC tetra-cysteine tag
notes: the whole isoform is surmised; also called ΔNp63β-FlAsH; not shown: 6xHis, N-terminal, cleaved; lipoyl domain, N-terminal, cleaved; FlAsH-tag CCPGCC, C-terminal, kept
B4: Human p73 isoform ΔNp73β, with C-terminal FlAsH tag, FlAsH-labelled (natural protein, UniProt O15350-9 1-450, looked up)
chain: B2 chain
modifications: FlAsH (from FlAsH-EDT2, an arsenic derivative of fluorescein) on the C-terminal CCPGCC tetra-cysteine tag
notes: the whole isoform is surmised; also called ΔNp73β-FlAsH; not shown: 6xHis, N-terminal, cleaved; lipoyl domain, N-terminal, cleaved; FlAsH-tag CCPGCC, C-terminal, kept
B5: Dmp53 (Drosophila melanogaster p53) with C-terminal FlAsH tag, labelled with FlAsH (natural protein, fruit fly (Drosophila melanogaster), UniProt Q9N6D8 1-385, looked up)
chain: MYISQPMSWHKESTDSEDDSTEVDIKEDIPKTVEVSGSELTTEPMAFLQGLNSGNLMQFSQQSVLREMMLQDIQIQANTLPKLENHNIGGYCFSMVLDEPPKSLWMYSIPLNKLYIRMNKAFNVDVQFKSKMPIQPLNLRVFLCFSNDVSAPVVRCQNHLSVEPLTANNAKMRESLLRSENPNSVYCGNAQGKGISERFSVVVPLNMSRSVTRSGLTRQTLAFKFVCQNSCIGRKETSLVFCLEKACGDIVGQHVIHVKICTCPKRDRIQDERQLNSKKRKSVPEAAEEDEPSKVRRCIAIKTEDTESNDSRDCDDSAAEWNVSRTPDGDYRLAITCPNKEWLLQSIEGMIKEAAAEVLRNPNQENLRRHANKLLSLKKRAYELP
modifications: FlAsH (from FlAsH-EDT2, Lumio Green) on the C-terminal CCPGCC tetra-cysteine tag
notes: amplified from a cDNA library (Simon Bullock); also called fruit fly p53; not shown: FlAsH tag CCPGCC, C-terminal, kept; 6xHis, N-terminal, cleaved; lipoyl domain, N-terminal, cleaved
B6: Xlp53 (Xenopus laevis p53) with C-terminal FlAsH tag, labelled with FlAsH (natural protein, frog (Xenopus laevis), UniProt P07193 1-363, looked up)
chain: MEPSSETGMDPPLSQETFEDLWSLLPDPLQTVTCRLDNLSEFPDYPLAADMTVLQEGLMGNAVPTVTSCAVPSTDDYAGKYGLQLDFQQNGTAKSVTCTYSPELNKLFCQLAKTCPLLVRVESPPPRGSILRATAVYKKSEHVAEVVKRCPHHERSVEPGEDAAPPSHLMRVEGNLQAYYMEDVNSGRHSVCVPYEGPQVGTECTTVLYNYMCNSSCMGGMNRRPILTIITLETPQGLLLGRRCFEVRVCACPGRDRRTEEDNYTKKRGLKPSGKRELAHPPSSEPPLPKKRLVVVDDDEEIFTLRIKGRSRYEMIKKLNDALELQESLDQQKVTIKCRKCRDEIKPKKGKKLLVKDEQPDSE
modifications: FlAsH (from FlAsH-EDT2, Lumio Green) on the C-terminal CCPGCC tetra-cysteine tag
notes: also called frog p53; not shown: FlAsH tag CCPGCC, C-terminal, kept; 6xHis, N-terminal, cleaved; lipoyl domain, N-terminal, cleaved
B7: Drp53 (zebrafish p53) with C-terminal FlAsH tag, labelled with FlAsH (natural protein, zebrafish (Danio rerio), UniProt P79734 1-373, looked up)
chain: MAQNDSQEFAELWEKNLIIQPPGGGSCWDIINDEEYLPGSFDPNFFENVLEEQPQPSTLPPTSTVPETSDYPGDHGFRLRFPQSGTAKSVTCTYSPDLNKLFCQLAKTCPVQMVVDVAPPQGSVVRATAIYKKSEHVAEVVRRCPHHERTPDGDNLAPAGHLIRVEGNQRANYREDNITLRHSVFVPYEAPQLGAEWTTVLLNYMCNSSCMGGMNRRPILTIITLETQEGQLLGRRSFEVRVCACPGRDRKTEESNFKKDQETKTMAKTTTGTKRSLVKESSSATLRPEGSKKAKGSSSDEEIFTLQVRGRERYEILKKLNDSLELSDVVPASDAEKYRQKFMTKNKKENRESSEPKQGKKLMVKDEGRSDSD
modifications: FlAsH (from FlAsH-EDT2, Lumio Green) on the C-terminal CCPGCC tetra-cysteine tag
notes: not shown: FlAsH tag CCPGCC, C-terminal, kept; 6xHis, N-terminal, cleaved; lipoyl domain, N-terminal, cleaved
B8: Drosophila melanogaster p53, full length, with C-terminal FlAsH tag, FlAsH-labelled (natural protein, UniProt Q9N6D8 1-385, looked up)
chain: B5 chain
modifications: FlAsH (from FlAsH-EDT2, an arsenic derivative of fluorescein) on the C-terminal CCPGCC tetra-cysteine tag
notes: p53 of Drosophila melanogaster, full-length protein, amplified from a cDNA library; also called Dmp53; Dmp53-FlAsH; not shown: 6xHis, N-terminal, cleaved; lipoyl domain, N-terminal, cleaved; FlAsH-tag CCPGCC, C-terminal, kept
B9: Xenopus laevis p53, full length, with C-terminal FlAsH tag, FlAsH-labelled (natural protein, UniProt P07193 1-363, looked up)
chain: B6 chain
modifications: FlAsH (from FlAsH-EDT2, an arsenic derivative of fluorescein) on the C-terminal CCPGCC tetra-cysteine tag
notes: p53 of frog (Xenopus laevis), full-length protein, from a Mammalian Gene Collection clone; also called Xlp53; Xlp53-FlAsH; not shown: 6xHis, N-terminal, cleaved; lipoyl domain, N-terminal, cleaved; FlAsH-tag CCPGCC, C-terminal, kept
B10: Danio rerio p53, full length, with C-terminal FlAsH tag, FlAsH-labelled (natural protein, UniProt P79734 1-373, looked up)
chain: B7 chain
modifications: FlAsH (from FlAsH-EDT2, an arsenic derivative of fluorescein) on the C-terminal CCPGCC tetra-cysteine tag
notes: p53 of zebrafish (Danio rerio), full-length protein, from a Mammalian Gene Collection clone; also called Drp53; Drp53-FlAsH; not shown: 6xHis, N-terminal, cleaved; lipoyl domain, N-terminal, cleaved; FlAsH-tag CCPGCC, C-terminal, kept

Biological target: the molecule itself
Assay: AUC; sedimentation velocity with fluorescence detection, FlAsH-labelled protein at 5-500 nM (also at 60 k rpm); 150 mM NaCl, 25 mM phosphate pH 7.2, 10% glycerol, BSA 0.2 mg/mL, 1 mM beta-mercaptoethanol, 10°C; dimer to monomers; Kd expressed in concentration of monomer
For B1, the “fold weaker primary dimer (monomer-dimer equilibrium) than human p53” value was 9 fold. B2 was tested, and the “fold weaker primary dimer (monomer-dimer equilibrium) than human p53” value was 6 fold.

Biological target: the molecule itself
Assay: AUC; sedimentation velocity with fluorescence detection, FlAsH-labelled protein at 5-500 nM (monomer); 150 mM NaCl, 25 mM phosphate pH 7.2, 10% glycerol, BSA 0.2 mg/mL, 1 mM β-mercaptoethanol, 10°C; dimer to monomers; Kd expressed in concentration of monomer
B3 showed a Kd of 9.3 nM. Work on B4 yielded a Kd of 5.7 nM.

Biological target: the molecule itself
Assay: AUC; sedimentation velocity with fluorescence detection, FlAsH-labelled protein at 5-500 nM; 150 mM NaCl, 25 mM phosphate pH 7.2, 10% glycerol, BSA 0.2 mg/mL, 1 mM beta-mercaptoethanol, 10°C; tetramer to dimers; Kd expressed in concentration of monomer
With B1 the “fold weaker self-association (dimer-tetramer equilibrium) than Dmp53, Drp53 and ΔNp73β” value was ~5 fold and the “stoichiometry N” value was 4. In the case of B5, the “stoichiometry N” value is reported as 4. B2 was tested, and the “stoichiometry N” value was 4. For B6, the “fold weaker self-association (dimer-tetramer equilibrium) than Dmp53, Drp53 and ΔNp73β” value was ~10 fold and the “stoichiometry N” value was 4. For B7, the “stoichiometry N” value was 4.

Biological target: the molecule itself
Assay: AUC; sedimentation velocity with fluorescence detection, FlAsH-labelled protein at 5-500 nM (monomer); 150 mM NaCl, 25 mM phosphate pH 7.2, 10% glycerol, BSA 0.2 mg/mL, 1 mM β-mercaptoethanol, 10°C; tetramer to dimers; Kd expressed in concentration of monomer
In the case of B3, the Kd is reported as 12.2 nM. B8 showed a Kd of 1.7 nM. In the case of B4, the Kd is reported as 2.4 nM. In the case of B9, the Kd is reported as 27.6 nM. B10 gave a Kd of 3.6 nM.
